Test results: the supplement of paper PMC6757056
± gives the standard deviation of the averaged measurements.

B1: library; a variant is named by its letters at N, in order (parent)
chain: GCUGUCACCGGUGUAUUACCCUAGUGGUCGACCGGUCUGAUGAGUCUNNNNNNAGACGAAACAGC

Key:
hypoxanthine [1] = variants of: B1; test: normalized RNA/DNA level with ligand (relative to sTRSVctl = 100) (log10 (% of sTRSVctl)); ligand: hypoxanthine (xanthine aptamer); higher = less ribozyme self-cleavage, higher mRNA level; details: ligand concentration (+) RNA-Seq: 5 mM, HEK293T, reporter: mCherry (pCS4076), ligand present: yes
Procedure, shortened: (§1)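 Only sequences with at least 100 DNA reads were analyzed, from HEK293T cells transfected with 4 µg per 6-well well of ribozyme switch library plasmids 72 h before RNA extraction with EDTA. Any ligand was added 1 h before transfection. RNA level was defined as RNA over DNA reads, normalized to a spiked-in non-cleaving sequence or to the top sequences, then scaled and log-transformed. The top set was 25 sequences, and the scaling was ×100 followed by log10.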

hypoxanthine [2] = variants of: B1; test: normalized RNA/DNA level without ligand (relative to sTRSVctl = 100) (log10 (% of sTRSVctl)); ligand: hypoxanthine (xanthine aptamer); higher = less ribozyme self-cleavage, higher mRNA level; details: HEK293T, reporter: mCherry (pCS4076), ligand present: no
Procedure, shortened: as §1

Variant | normalized RNA/DNA level with ligand (log10) (hypoxanthine [1]) | normalized RNA/DNA level without ligand (log10) (hypoxanthine [2])
ACAGAA | 1.922 ± 0.012 | 1.7472 ± 0.0012
ACAGAC | 1.92 ± 0.078 | 1.838 ± 0.0042
GAUCGC | 1.93 ± 0.023 | 1.8 ± 0.053
GAUCGU | 1.96 ± 0.11 | 1.838 ± 0.013
GAUCGA | 1.952 ± 0.0048 | 1.809 ± 0.0024
CCAGAU | 1.9387 ± 0.00089 | 1.8 ± 0.057
CCAGAC | 1.954 ± 0.0047 | 1.877 ± 0.011
AAUGGU | 1.925 ± 0.016 | 1.592 ± 0.0071
AAUGGC | 1.929 ± 0.0094 | 1.79 ± 0.02
UCAAAC | 1.916 ± 0.0079 | 1.85 ± 0.03
AAUCCA | 1.92 ± 0.046 | 1.865 ± 0.015
AAUCCC | 1.94 ± 0.024 | 1.84 ± 0.035
AAUCAA | 1.89 ± 0.066 | 1.75 ± 0.068
AAUCAG | 1.838 ± 0.018 | 1.56 ± 0.041
GAUGUA | 1.887 ± 0.018 | 1.79 ± 0.03
GAUGUC | 1.95 ± 0.0048 | 1.92 ± 0.02
CCACAC | 1.93 ± 0.067 | 1.777 ± 0.015
CCACAG | 1.92 ± 0.04 | 1.66 ± 0.059
CCACAU | 1.92 ± 0.11 | 1.79 ± 0.049
CCACAA | 1.9686 ± 0.0014 | 1.8 ± 0.033
CCACCU | 2.033 ± 0.0077 | 1.93 ± 0.053
CCACCA | 1.97 ± 0.026 | 1.88 ± 0.046
CCACCG | 1.99 ± 0.028 | 1.84 ± 0.2

Variant | normalized RNA/DNA level with ligand (log10) (hypoxanthine [1]) | normalized RNA/DNA level without ligand (log10) (hypoxanthine [2])
CCAAAG | 1.885 ± 0.013 | 1.58 ± 0.033
CCAAAA | 1.92 ± 0.032 | 1.82 ± 0.052
ACAGUA | 1.908 ± 0.015 | 1.76 ± 0.029
ACAGUG | 1.85 ± 0.039 | 1.35 ± 0.021
UCAGGC | 1.96 ± 0.073 | 1.96 ± 0.03
UCAGGU | 1.87 ± 0.052 | 1.654 ± 0.0062
UCAGUG | 1.93 ± 0.061 | 1.77 ± 0.067
UCAGUC | 1.96 ± 0.056 | 1.9668 ± 0.0014
UAUGCG | 1.8828 ± 0.0017 | 1.67 ± 0.037
UAUGCU | 1.92 ± 0.013 | 1.85 ± 0.03
UAUGCC | 1.935 ± 0.0058 | 1.87 ± 0.067
UAUGCA | 1.88 ± 0.022 | 1.83 ± 0.019
GAUCCA | 1.908 ± 0.0041 | 1.9 ± 0.03
GAUCCU | 1.979 ± 0.014 | 1.948 ± 0.012
GAUCCC | 2.05 ± 0.042 | 1.889 ± 0.0035
CCAGGU | 1.99 ± 0.067 | 1.833 ± 0.0077
CCAGGA | 1.97 ± 0.033 | 1.83 ± 0.022
CCAGGC | 1.97 ± 0.041 | 1.86 ± 0.061
CCAGGG | 1.89 ± 0.11 | 1.37 ± 0.044
UCACAA | 1.92 ± 0.061 | 1.75 ± 0.019
UCACAG | 1.87 ± 0.033 | 1.56 ± 0.056
UCACAC | 1.94 ± 0.088 | 1.741 ± 0.015
CAUUCA | 1.92 ± 0.04 | 1.78 ± 0.029

Variant | normalized RNA/DNA level with ligand (log10) (hypoxanthine [1]) | normalized RNA/DNA level without ligand (log10) (hypoxanthine [2])
CAUUCU | 1.91 ± 0.021 | 1.86 ± 0.034
CAUUCC | 1.98 ± 0.055 | 1.9 ± 0.048
CAUUCG | 1.943 ± 0.012 | 1.89 ± 0.07
CCACUA | 1.97 ± 0.042 | 1.86 ± 0.071
CCACUC | 2.02 ± 0.059 | 1.98 ± 0.036
CCACUU | 1.94 ± 0.024 | 1.914 ± 0.019
CAUGUU | 1.94 ± 0.026 | 1.879 ± 0.0072
CAUGUG | 1.93 ± 0.02 | 1.882 ± 0.012
CAUGUC | 1.91 ± 0.056 | 1.92 ± 0.042
CAUGUA | 1.91 ± 0.011 | 1.771 ± 0.0036
GCAAGG | 1.84 ± 0.04 | 1.35 ± 0.032
GCAAGC | 1.89 ± 0.074 | 1.575 ± 0.0013
GCAAGU | 1.93 ± 0.036 | 1.69 ± 0.043
GCAGAC | 1.89 ± 0.021 | 1.549 ± 0.0076
CCAACA | 1.93 ± 0.022 | 1.883 ± 0.017
CCAACG | 1.924 ± 0.0039 | 1.859 ± 0.012
GCACUC | 1.945 ± 0.0064 | 1.873 ± 0.0092
CAUUAG | 1.941 ± 0.019 | 1.73 ± 0.054
CAUUAC | 1.9 ± 0.046 | 1.82 ± 0.0041
CAUGGC | 1.97 ± 0.044 | 1.87 ± 0.046
CAUGGA | 1.92 ± 0.05 | 1.7786 ± 0.00037
CCAGCG | 1.917 ± 0.0021 | 1.82 ± 0.038
CCAGCU | 1.99 ± 0.097 | 1.94 ± 0.045

Variant | normalized RNA/DNA level with ligand (log10) (hypoxanthine [1]) | normalized RNA/DNA level without ligand (log10) (hypoxanthine [2])
CCAGCA | 1.966 ± 0.019 | 1.87 ± 0.043
GCAAAG | 1.894 ± 0.0041 | 1.501 ± 0.0085
GCAAAA | 1.928 ± 0.015 | 1.79 ± 0.025
CCAGUC | 1.99 ± 0.038 | 1.974 ± 0.0045
CCAGUU | 2.01 ± 0.029 | 1.928 ± 0.0095
CCAGUG | 1.93 ± 0.051 | 1.69 ± 0.077
CCAGUA | 1.94 ± 0.054 | 1.85 ± 0.038
AAUUAU | 1.92 ± 0.026 | 1.82 ± 0.022
GAUAUU | 1.8969 ± 0.0013 | 1.84 ± 0.038
AAUUUA | 1.93 ± 0.047 | 1.828 ± 0.0075
AAUUUC | 1.91 ± 0.0075 | 1.926 ± 0.0082
AAUUUU | 1.946 ± 0.013 | 1.886 ± 0.0096
ACACCA | 1.97 ± 0.069 | 1.873 ± 0.0035
ACACCG | 1.9 ± 0.12 | 1.55 ± 0.078
ACACCU | 1.952 ± 0.016 | 1.84 ± 0.024
UAUCUU | 1.97 ± 0.044 | 1.9 ± 0.043
UAUCUC | 2 ± 0.021 | 1.99 ± 0.031
UAUCUG | 1.904 ± 0.0025 | 1.708 ± 0.0037
UAUCUA | 1.92 ± 0.059 | 1.89 ± 0.024
CAUAUU | 1.91 ± 0.044 | 1.8 ± 0.041
CAUAUG | 1.94 ± 0.016 | 1.86 ± 0.042
AAUGUC | 1.98 ± 0.064 | 1.921 ± 0.0048
CCAAGG | 1.83 ± 0.036 | 1.603 ± 0.013

Variant | normalized RNA/DNA level with ligand (log10) (hypoxanthine [1]) | normalized RNA/DNA level without ligand (log10) (hypoxanthine [2])
CCAAGA | 1.945 ± 0.0033 | 1.82 ± 0.034
ACAAGU | 1.88 ± 0.032 | 1.564 ± 0.013
GAUGCA | 1.97 ± 0.036 | 1.83 ± 0.02
ACACAA | 1.92 ± 0.065 | 1.78 ± 0.028
ACACAU | 1.92 ± 0.03 | 1.723 ± 0.0032
ACACAG | 1.84 ± 0.023 | 1.42 ± 0.054
ACACAC | 1.92 ± 0.023 | 1.74 ± 0.022
UAUUUG | 1.93 ± 0.039 | 1.78 ± 0.026
UAUUUC | 1.974 ± 0.01 | 1.911 ± 0.019
UAUUUA | 1.93 ± 0.07 | 1.93 ± 0.053
UAUUUU | 1.94 ± 0.044 | 1.86 ± 0.05
ACAUAC | 1.94 ± 0.034 | 1.823 ± 0.015
GCACGA | 1.925 ± 0.0075 | 1.75 ± 0.077
GCACGU | 1.91 ± 0.053 | 1.73 ± 0.032
GCACGC | 1.96 ± 0.06 | 1.86 ± 0.043
UAUCGU | 1.9 ± 0.052 | 1.7 ± 0.091
UAUCGA | 1.92 ± 0.035 | 1.76 ± 0.046
CAUUGC | 1.94 ± 0.06 | 1.87 ± 0.053
CAUUGU | 1.94 ± 0.049 | 1.877 ± 0.0085
CAUUGG | 1.91 ± 0.04 | 1.47 ± 0.068
CCACGG | 1.91 ± 0.028 | 1.85 ± 0.025
CCACGA | 1.95 ± 0.089 | 1.881 ± 0.0042
CCACGU | 1.93 ± 0.069 | 1.827 ± 0.0023
